Source: patent publication US20250277003A1 (OSAKA UNIVERSITY, published 2025)

Legend:
BtCoV BM48-31 spike RBD = BtCoV BM48-31 spike RBD (BtCoV BM48-31); assay: bead flow cytometry
WIV1-CoV spike RBD = WIV1-CoV spike RBD (WIV1-CoV); assay: bead flow cytometry

B1: mAb CR3022 (antibody, V domains shown)
VH: QMQLVQSGTEVKKPGESLKISCKGSGYGFITYWIGWVRQMPGKGLEWMGIIYPGDSETRYSPSFQGQVTISADKSINTAYLQWSSLKASDTAIYYCAGGSGISTPMDVWGQGTTVTVSS
VL: not shown
Q: B1 was tested. Which gMFI (BtCoV BM48-31 spike RBD) did it give?
A: 72

Q: What about the gMFI (WIV1-CoV spike RBD) of the same binder?
A: 22300
